We go through 6 molecules from patent publication CN109988240A (ANYUAN BIOTECHNOLOGY SHANGHAI CO LTD; PHARMAB SHANGHAI …, dated 2019).

The Kd is the free concentration of one partner at which half of the binding sites on the other are occupied at equilibrium, for simple one-to-one binding. A higher Kd goes with lower affinity. In general, EC50 refers to the concentration giving half of the maximal effect. A word on the koff: it is the rate constant with which the complex falls apart. Usually kon stands for a measure of how fast the partners come together. Read a low kon as slow association.

For experiment [1], the target named is T1, 人GPC-3-His(北京义翘神州生物) (human, UniProt P51654 25-559).
T1 construct: Bought His-tagged protein, coupled to Ni-NTA sensors in the BLI assay; not shown: His tag
T1 sequence (P51654 25-559 limits assumed): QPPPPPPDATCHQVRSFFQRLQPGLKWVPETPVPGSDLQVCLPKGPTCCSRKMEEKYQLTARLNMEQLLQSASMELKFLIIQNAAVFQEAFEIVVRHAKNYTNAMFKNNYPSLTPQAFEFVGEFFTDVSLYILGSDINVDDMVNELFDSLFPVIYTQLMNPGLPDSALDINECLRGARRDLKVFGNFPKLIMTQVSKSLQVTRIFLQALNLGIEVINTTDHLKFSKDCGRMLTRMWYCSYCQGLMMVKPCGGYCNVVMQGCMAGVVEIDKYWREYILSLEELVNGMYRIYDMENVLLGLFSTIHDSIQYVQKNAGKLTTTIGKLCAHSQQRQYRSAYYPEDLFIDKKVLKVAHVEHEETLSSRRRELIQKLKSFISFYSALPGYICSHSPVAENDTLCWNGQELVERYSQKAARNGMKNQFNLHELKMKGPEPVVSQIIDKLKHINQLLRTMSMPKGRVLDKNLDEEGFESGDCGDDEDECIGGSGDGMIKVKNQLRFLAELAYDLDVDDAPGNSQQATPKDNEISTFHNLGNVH
The experiment in a line: affinity and kinetics of Table 2 (table not shown; method not named here, taken as BLI of Example 3.2).

The target of experiment [2] is T2, 人GPC-3抗原 (磷脂酰肌醇蛋白聚糖3, Glypican-3) (human, UniProt P51654 25-559, limits assumed).
T2 construct: The immunogen was bought from Sino Biological (北京义翘神州生物); also called GPC-3蛋白
T2 sequence (P51654 25-559 limits assumed): as above
Briefly: indirect ELISA, GPC-3 antigen coated at 0.2 μg/ml. For orientation: In an ELISA, binding on a coated surface is turned into a signal by an enzyme label.

Experiment [3] concerns the target T1, 人GPC-3-His(北京义翘神州生物). The experiment in a line: BLI (ForteBio Octet), human GPC-3-His on Ni-NTA sensor. (In BLI a coated tip is dipped into the sample, and binding shifts an interference pattern.)
Experiment [4] addresses T1, 人GPC-3-His(北京义翘神州生物). Briefly: BLI (ForteBio Octet), human GPC-3-His on Ni-NTA sensor, antibody 3.125-100 nM.
Experiment [5] deals with T2, 人GPC-3抗原 (磷脂酰肌醇蛋白聚糖3, Glypican-3). Briefly: competition ELISA on coated GPC-3 (0.1 μg/ml), competitor GPC-3 antibody-HRP.
Experiment [6] shares this target. Briefly: indirect ELISA on coated GPC-3, goat anti-human IgG-HRP detection.

Where a chain is given by its changes, count along the chain named.

B1: 人源化抗体AB13E3 (antibody, V domains shown)
VH: QVQLVQSGAEVKKPGASVKVSCKASGYTFTDYEMHWVKQAPGQGLEWIGAIDPQTGNTAFNQKFKGRVTLTRDKSSSTVYMELSSLRSEDTAVYYCTRFYSLTYWGQGTLVTVSS
VL: DVLMTQSPLSLPVTLGQPASISCRSSQSIVHSNGNTYLQWYLQRPGQSPKLLIYKVSNRFSGVPDRFSGSGSGTYFTLKISRVEAEDVGVYYCFQGSHFPYAFGGGTKVEIK
notes: Humanized from GPC3#4 by CDR grafting; detected with goat anti-human IgG
In the case of B1, the Kd with 人GPC-3-His(北京义翘神州生物) [1] is under 0.01 nM.

B2: 鼠单克隆抗体GPC3#4(杂交瘤细胞株DWX-1分泌) (antibody, V domains shown)
VH: QVQLQQSGAELVRPGAPVTLSCKASGYTFTDYEMHWVKQTPVNGLEWIGAIDPQTGNTAFNQKFKGKAILTADKSSSTAYMEVRSLTSEGSAVYYCTRFYSLTYWGQGTLVTVSA
VL: B1 VL with S7V, T14S, Q17D, P18Q, R44K, V88L, V109L
notes: Mouse antibody purified from hybridoma DWX-1; also called 鼠源抗体GPC3#4; 鼠单抗GPC3#4
For the molecule B2, in experiment [2], the 50% effective concentration (EC50) is about 0.01 µg/mL. The dissociation constant (Kd) with 人GPC-3-His(北京义翘神州生物) [3] was under 0.01 nM. In the experiment with 人GPC-3-His(北京义翘神州生物) [4], this molecule returned an equilibrium dissociation constant (Kd) of 0.00107 nM, a koff of 1e-07 s⁻¹ and a kon of 624000 M⁻¹ s⁻¹.

B3: 人源化抗体AB13E1 (antibody, V domains shown)
VH: B1 VH with K38R, I48M, A50I, A59S, F60Y, N61A, K65Q, L70M, K74T, S76T
VL: B1 VL with L3V, Q39N, Y41F, L42Q, K50R, L51R, F60D, Y75D
notes: Humanized from GPC3#4 by CDR grafting
B3 registered an equilibrium dissociation constant (Kd) with 人GPC-3-His(北京义翘神州生物) [1] of under 0.01 nM.

B4: 人源化抗体AB13E5 (antibody, V domains shown)
VH: QVQLVQSGAEVKKPGASVTLSCKASGYTFTDYEMHWVRQAPGQGLEWMGIIDPQTGNTSYAQKFQGRVTMTRDTSTSTVYMELSSLRSEGSAVYYCTRFYSLTYWGQGTLVTVSS
VL: B1 VL with L3V, Q17D, P18Q, Q39N, Y41F, L42Q, K50R, L51R, F60D, Y75D
notes: as for B3
Molecule B4 registered a Kd with 人GPC-3-His(北京义翘神州生物) [1] of under 0.01 nM.

B5: 人源化抗体AB13E4 (antibody, V domains shown)
VH: B1 VH with K12V, V20L, A40T, V68A, V79A, L83V, D90G
VL: B1 VL with R44K, V109L
notes: Humanized from GPC3#4 by resurfacing; detected with goat anti-human IgG
Regarding B5, the EC50 lay in the range of 0.1 to 1 µg/mL in experiment [5] and 0.001 to 0.01 µg/mL in experiment [6]. In the experiment with 人GPC-3-His(北京义翘神州生物) [1], this molecule came in with a Kd of under 0.01 nM.

B6: 人源化抗体AB13E2 (antibody, V domains shown)
VH: B4 VH with T19K, L20V, M48I, I50A, G90D, S91T
VL: B1 VL with L3V, Q39N, Y41F, L42Q, F60D, Y75D, V109L
notes: as for B3
Consider B6, for which, in the experiment with 人GPC-3-His(北京义翘神州生物) [1], the Kd is under 0.01 nM.
